# Measured values from US20230257714A1, “METHODS AND COMPOSITIONS FOR GENERATING HUMAN INDUCED MESENCHYMAL STEM CELLS” (SmartCella Solutions AB, priority 2022, published 2023).
# Legend:
# [1] = test system: iMSCs; assay: quantitative real-time PCR of immunomodulatory marker genes in iMSCs treated with immune stimulators; type: cell-based, human; conditions: iMSCs 100k cells/sample; dsRNA 500 ng/sample or IFNr 10 ng/ml; 24 hours; particularly IDO1, TLR3 and HGF; control genes CD73, CD90, CD105 not upregulated; FIG. 5
# Description: In a first set of studies, iMSCs were treated with immune stimulators, either double-strand RNA (dsRNA) or recombinant human interferon gamma (IFNr)(R&D Systems, Cat. #35-IF-100). iMSCs (100k cells/sample) were cultured with dsRNA (500 ng/sample) or IFNr (10 ng/ml) for 24 hours. […] Immunostimulatory marker genes examined were: RIG1, TLR3, COX2, IDO1, HGF and TGF-beta. Control genes (for MSC surface markers) examined were: CD73, CD90 and CD105.
# [2] = test system: iMSCs; assay: IL-10 secretion by iMSCs after IFNr treatment (ELISA); type: cell-based, human; conditions: IFNr 20 ng/mL or 50 ng/mL for three days; media supernatant; FIG. 7
# Description: In a third set of experiments, the production of the anti-inflammatory factor IL-10 by the iMSCs was examined after treatment with IFNr. iMSCs (50k cells/well of a 24 well plate; approx. 25,000 cells/cm^2) were treated with low concentration (20 ng/mL) or high concentration (50 ng/mL) IFNr for three days to stimulate secretion of IL-10. The control group was the same culture conditions but without IFNr treatment. After three days, media supernatant was collected and the level of IL-10 secretion was quantified by standard ELISA analysis (human IL-10 Quantikine ELISA kit, R&D Systems, Cat. #D1000B).
molecule,measurement,setting,value
"IFNr: recombinant human interferon gamma (R&D Systems), immune stimulator (protein, UniProt P01579 24-161, looked up) Interferon gamma: QDPYVKEAENLKKYFNAGHSDVADNGTLFLGILKNWKEESDRKIMQSQIVSFYFKLFKNFKDDQSIQKSVETIKEDMNVKFFNSNKKKRDDFEKLTNYSVTDLNVQRKAIHELIQVMAELSPAAKTGKRKRSQMLFRG","expression of genes associated with immunostimulation (RIG1, TLR3, COX2, IDO1, HGF, TGF-beta)",[1],increased expression
same,secretion of IL-10 by iMSCs,[2],dose-dependent
